Changes are numbered by the printed parent chain.

The target of experiment [1] is human TNFR1, soluble recombinant protein (human) (UniProt P19438). Nature of the experiment: phage ELISA on 1 nM TNFR1 coat, anti-M13-HRP; phage after 100 ug/ml trypsin 1 h RT; phage input 2.26E+10. A general note: In an ELISA, binding on a coated surface is turned into a signal by an enzyme label.
The target in another experiment is T1, recombinant human VEGF (human, UniProt P15692-4 27-191, biotinylated where used on streptavidin or neutravidin surfaces).
T1 construct: also called hVEGF; VEGFA
Nature of the experiment: RBA assay (column 'Activity (nM)'); taken to be of the Fc fusion; competitor VEGFR2-Fc.

Experiment [2] deals with T2, TNFR1-FC fusion (human, UniProt P19438 30-211, limits assumed).
T2 construct: not shown: Fc part, not described further
T2 sequence (looked up): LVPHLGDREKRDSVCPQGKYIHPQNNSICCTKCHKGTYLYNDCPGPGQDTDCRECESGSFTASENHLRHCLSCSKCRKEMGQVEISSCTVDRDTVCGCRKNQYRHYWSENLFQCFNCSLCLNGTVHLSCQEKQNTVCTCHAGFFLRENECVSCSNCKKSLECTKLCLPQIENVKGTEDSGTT
Nature of the experiment: RBA assay (column 'Activity (nM)'); taken to be of the Fc fusion; competition with TNF-alpha.

Experiment [3] deals with T2, TNFR1-FC fusion. Nature of the experiment: TNFR-1 receptor binding assay: inhibition of TNF-alpha binding to TNFR1; after 7 days at 50 °C, concentration assumed from 1 mg/ml.
The target in experiment [4] is T2, TNFR1-FC fusion. The experiment can be described thus: TNFR-1 receptor binding assay: inhibition of TNF-alpha binding to TNFR1; after 14 days at 50 °C, concentration assumed from 1 mg/ml.
Experiment [5] addresses T2, TNFR1-FC fusion. Nature of the experiment: TNFR-1 receptor binding assay: inhibition of TNF-alpha binding to TNFR1; unstressed sample (T0).

T1 sequence (P15692 other isoform, or with tags, fused parts or gaps limits assumed): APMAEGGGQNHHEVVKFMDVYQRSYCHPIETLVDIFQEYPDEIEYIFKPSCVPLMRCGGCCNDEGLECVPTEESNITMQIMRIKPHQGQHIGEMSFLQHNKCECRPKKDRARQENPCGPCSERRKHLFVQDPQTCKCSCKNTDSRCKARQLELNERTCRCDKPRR

Take DOM1h-131: the phage ELISA signal in experiment [1] amounted to 0.337.

B1: DMS1546 (DOM15-10 Fc fusion) (Fc fusion)
chain: DIQMTQSPSSLSASVGDRVTITCRASQWIGPELSWYQQKPGKAPKLLIYHTSILQSGVPSRFSGSGSGTDFTLTISSLQPEDFATYYCQQYMFQPRTFGQGTKVEIRR
notes: VK dAb fused to human IgG1 Fc; dimeric Fc fusion format; not shown: short linker and human IgG1 Fc
Consider B1, for which the EC50 with recombinant human VEGF stood at 0.913 nM.

B2: DMS1544 (DOM1h-131-206 Fc fusion) (Fc fusion)
chain: EVQLLESGGGLVQPGGSLRLSCAASGFTFAHETMVWVRQAPGKGLEWVSHIPPDGQDPFYADSVKGRFTISRDNSKNTLYLQMNSLRAEDTAVYHCALLPKRGPWFDYWGQGTLVTVSS
notes: dAb fused to human IgG1 Fc; dimeric Fc fusion format; not shown: short linker and human IgG1 Fc
B2 returned an EC50 with TNFR1-FC fusion [2] of 0.047 nM.

B3: DOM1h-131-206 (other)
VH: B2 chain
notes: also called GSK1995057A
As to B3, the “IC50 (read off the curve)” value in the experiment with TNFR1-FC fusion [3] and with TNFR1-FC fusion [4] was ~0.1 nM in each case.

B4: DOM1h-131-511 (other)
VH: B2 chain with D54V, H95Y
notes: Anti-TNFR1 domain antibody (dAb, immunoglobulin single variable domain, VH), tested as soluble monomer; also called GSK1995056A
For B4, the “IC50 (read off the curve)” value with TNFR1-FC fusion [5] was ~0.1 nM.

The term EC50 denotes the midpoint of the concentration-response curve.

These data come from US20120134982A1 (published 2012).
